Measured values published in patent US20210388084A1.

Columns and labels:
[1] = target: membrane-bound full-length human CD89 (human) (UniProt P24071); assay: FACS, HEK293F-huCD89, titrated Ab; competitor heat-aggr serum IgA
[2] = target: membrane-bound full-length human CD89 (human) (UniProt P24071); assay: FACS, HEK293F-huCD89, 24 h 37C no NaN3, IgA then Ab 10 ug/mL; pre-bound heat-aggr serum IgA
[3] = target: membrane-bound full-length human CD89 (human) (UniProt P24071); assay: FACS, HEK293F-huCD89, 4C +NaN3, Ab 10 ug/mL then IgA; competitor heat-aggr serum IgA
[4] = target: membrane-bound full-length human CD89 (human) (UniProt P24071); assay: FACS, HEK293F-huCD89, 24 h 37C no NaN3, Ab 10 ug/mL then IgA; competitor heat-aggr serum IgA
[5] = target: membrane-bound full-length human CD89 (human) (UniProt P24071); assay: FACS, HEK293F-huCD89, unlabeled Ab 10 ug/mL first; competitor A59-PE
[6] = target: membrane-bound full-length human CD89 (human) (UniProt P24071); assay: FACS, HEK293F-huCD89, unlabeled Ab 10 ug/mL first; competitor MIP8a-PE
[7] = target: membrane-bound full-length human CD89 (human) (UniProt P24071); assay: FACS, HEK293F-huCD89, 4C +NaN3, IgA then Ab 10 ug/mL; pre-bound heat-aggr serum IgA
[8] = target: membrane-bound full-length human CD89 (human) (UniProt P24071); assay: FACS, HEK293F-huCD89 (Example 7 (b)); competitor non-aggr serum IgA
[9] = target: membrane-bound full-length human CD89 (human) (UniProt P24071); assay: FACS, HEK293F-huCD89, unlabeled Ab 10 ug/mL first; competitor A3-PE
[10] = target: membrane-bound full-length human CD89 (human) (UniProt P24071); assay: FACS, HEK293F-huCD89, titrated Ab; competitor non-aggr serum IgA
[11] = target: membrane-bound full-length human CD89 (human) (UniProt P24071); assay: FACS, HEK293F-huCD89, 4C +NaN3, IgA then Ab 10 ug/mL; pre-bound non-aggr serum IgA
[12] = target: membrane-bound full-length human CD89 (human) (UniProt P24071); assay: FACS, HEK293F-huCD89 (Example 7 (b)); competitor heat-aggr serum IgA
[13] = target: membrane-bound full-length human CD89 (human) (UniProt P24071); assay: FACS, HEK293F-huCD89, 4C +NaN3, Ab 10 ug/mL then IgA; competitor non-aggr serum IgA
[14] = target: membrane-bound full-length human CD89 (human) (UniProt P24071); assay: FACS, HEK293F-huCD89, 24 h 37C no NaN3, Ab 10 ug/mL then IgA; competitor non-aggr serum IgA
[15] = target: membrane-bound full-length human CD89 (human) (UniProt P24071); assay: FACS, HEK293F-huCD89, 24 h 37C no NaN3, IgA then Ab 10 ug/mL; pre-bound non-aggr serum IgA

Row | Substance | maximum inhibition of IgA binding [1] [%] | percent IgA binding (remaining) [2] [%] | % blocking of IgA binding [3] [%] | percent IgA binding [3] [%] | percent IgA binding (remaining) [4] [%] | % blocking of A59-PE binding [5] [%] | % blocking of MIP8a-PE binding [6] [%] | percent IgA binding [7] [%] | maximum inhibition of IgA binding [8] [%] | % blocking of A3-PE binding [9] [%] | maximum inhibition of IgA binding [10] [%] | percent IgA binding [11] [%] | maximum inhibition of IgA binding [12] [%] | % blocking of IgA binding [13] [%] | percent IgA binding [13] [%] | percent IgA binding (remaining) [14] [%] | percent IgA binding (remaining) [15] [%]
1 | mouse anti-human CD89 antibody clone A3 (Santa Cruz Biotechnology) | 60 | 76 to 125 | 60 | 26 to 50 | 76 to 125 | > 90 | < 25 | 76 to 125 | 60 | > 90 | 60 | 76 to 125 | 60 | 60 | 26 to 50 | 26 to 50 | 
2 | mouse anti-human CD89 antibody clone A59 (BD Biosciences) | 60 | 76 to 125 | 60 | 26 to 50 | 76 to 125 | > 90 | < 25 | 76 to 125 | 60 | > 90 | 60 | 76 to 125 | 60 | 60 | 26 to 50 | 26 to 50 | 26 to 50
3 | mouse anti-human CD89 antibody clone MIP8a (BioRad) |  | 0 to 25 |  | 0 to 25 | 0 to 25 | 50 | > 90 | 0 to 25 |  | 55 |  | 0 to 25 |  |  | 0 to 25 | 0 to 25 | 0 to 25
4 | purified mouse IgG1 isotype control (antibody) |  | 76 to 125 |  | 76 to 125 | 76 to 125 |  |  | 76 to 125 |  |  |  | 76 to 125 |  |  | 76 to 125 | 76 to 125 | 76 to 125
